Test results taken from the supplement of paper PMC7125110.
± gives the standard error. Fewer inactive variants are shown than the library holds.

B1: glmS ribozyme (parent)
chain: AUAAAAGCGCCAGAACUACAGAAAUGUAGUUGACGAGGAGGAGGUUUAUCGAAUUUUCGGCGGAUGCCUCCAAA

Variants of: B1
Test: self-cleavage kobs at 2500 uM GlcN6P; higher = faster cleavage; RNA array
Conditions: with glucosamine-6-phosphate
How it was run: (§1)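 Tiles of sequenced MiSeq chips were imaged over ~14 h at 37 °C. On them, barcoded ribozyme variants had been transcribed in situ by E. coli RNA polymerase and were tracked via a hybridised Cy3 probe while glucosamine-6-phosphate (40 μM to 10 mM) in HEPES/KCl/Mg(OAc)2 buffer flowed in. Per-tile medians, normalised to baseline and to non-cleaving reference variants, were fit to one- or two-exponential decays for kobs, and weighted Michaelis–Menten fits gave kcat and KM.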

Variant | self-cleavage kobs at 2500 uM GlcN6P [s⁻¹]
AUAAAAGCGCCAGUACUACAGAAAUGUAUUUGACGAGGAGGAGGUUUAUCGAAUUUUCGGCGGAUGUCUCCAAA | 9.48e-05 ± 2.4e-05
AUAAAAGCGCCAGACGUACAGAAAUGUAGUUGACGAGGCGGAGGUGUAUCGAAUUCUCGGCGGAUGCCUCCAAA | < 1e-05
AUAAAAGCGCCAGGACUACAGAAAUGUAGUUUACGAGGAGGAGGAUUAUCGAAUUUUCGGCGGAUGCCUCCAAA | 0.00147 ± 0.00059
AUAAAAGCGCCAGUACUACAGAAAUGUAGCUGACGAGGAGGAGGUUUAUCGACUUUUCGGCGGAUGCCUCCAAA | < 1e-05
AUAAAAGCGCCAGUACUACAGAAAUGUAGUUGACGAGCAGGUGGUUUAUCGAAUUUUCGGCGGAUGCCUCCAAA | < 1e-05
AUAAAAGCGCCAGGACUACAGAAAUGUAGUUGACGAGAAAGAGGUUUAUCGAAUUUUCGGCGGAUGCCUCCAAA | < 1e-05
AUAAAAGCGCCAGACCUACAGAAAUGUAGUUGACGCGGAGGAGGUUUUUCGAAUUUCCGGCGGAUGCCUCCAAA | < 1e-05
AUAAAAGCGCCAGCACUACAUAAAUGUAGUUGACGAGGAGGAGGUUUAUCGAAUUUUCGGCGGAUGCCUCCAAA | 0.00132 ± 0.00031
AUAAAAGCGCCAGCACUACAGAAAUGUAGUUGACGAGGAGGACGUUUAUCAAAUUGUCGGCGGAUGCCUCCAAA | < 1e-05
AUAAAAGCGCCAGGACUACAGAAAUGUAGUUGACGCGGAGGAGGUUUAUCGAACUUUCGGCGGAUGCCUCCAAA | < 1e-05
AUAAAAGCGCCAGCACUACAGAAAUGUAGUUGACGAGGAGGAAGUUUAUCGAAUUUUCGGUGGAUGCCUCCAAA | < 1e-05
AUAAAAGCGCCAGGACUACAGAAAUGUAGUUGUCGAGGAGGACGUUUAUCGAAUUUUCGGCAGAUGCCUCCAAA | < 1e-05
AUAAAAGCGCCAGCAUUACAGAAAUGUAGUUGACGAGGACGAGAUUUAUCGAAUUUUCGACGGAUGCCUCCAAA | < 1e-05
AUAAAAGCGCCAGCACUACAGAAAUGUAGUUGACGACGAGGAGGUUUAUCGAAUUUUCGGCCGAUGCCUCCAAA | < 1e-05
AUAAAAGCGCCAGUAUUACAGAAAUGUAGUUGACGAGGAGGAGGUUUAUCGAAUUUUUGGCGGAUGCCUCCAAA | 5.54e-05 ± 1.5e-05
AUAAAAGCGCCAGGACUACAGAAAUGUAGUUGAUAAGGAGGACGUUUAUCGAAUUUUCGGCGGAUGCCUCCAAA | < 1e-05
AUAAAAGCGCCAGUACUACAGAAAUGUAUUUGACGAGGAGGAGGUUUUUCGAUUUUUCGGCUGAUGCCUCCAAA | < 1e-05

Variant | self-cleavage kobs at 2500 uM GlcN6P [s⁻¹]
AUAAAAGCGCCAGUACUACAGAAAUGUAGAUGACGAGGAGGAGGUUUAUCGAAUUUUCGGCGGAUGCCUUCAAA | 0.000871 ± 0.00021
AUAAAAGCGCCAGGACUACAGAAAUGUAGUUGACGACGGGGAGGUUUAUCGAAUUUUCGGCGGAUGCCUCCAAA | 6.41e-05 ± 1.9e-05
AUAAAAGCGCCAGACCUACAGAAAUGUAGUUUACGAGCAGGAGGUUUAUCGAAUUUUCUGCGGAUGCCUCCAAA | < 1e-05
AUAAAAGCGCCAGCAAUACAGAAAUGUAGUUGACGAGGAGGAGGUUUAUCGAAUUUUCGGCGUAUGCCUCCAAA | < 1e-05
AUAAAAGCGCCAGCACUACAGAAAUUUAGUUGACGAGGAGGAGGUUUAUCGAAUUUUCGGCUGAUGCUUCCAAA | < 1e-05
AUAAAAGCGCCAGUAAUACAGAAAUGUAGUUGACGAGGAGGAGGUUUAUCGAAUUUUCGGCGAAUGCCUCCAAA | < 1e-05
AUAAAAGCGCCAGGACUACAGAAAUGUAGUUGACGAGCAGGAGGUUUAUCGAAUUUUCGGUGGAUGCCUCCAAA | < 1e-05
AUAAAAGCGCCAGGACUACAGAAAUGUAGUUGACGAGGAGGAGGUUUAUCGAAUUUUCGGCGCUUGCCUCCAAA | < 1e-05
AUAAAAGCGCCAGCACUACAGAAAUGUAGUUGACGAGGAGGAGGUUUAUCGAAAUUUCCGCGGAUGCCUCUAAA | < 1e-05
AUAAAAGCGCCAGUACUACAGAAAUGUAGUUGACGAGGAGGACGUUUAUCGAAUUUUCGGCGGAUGCUUCCAAA | 5.22e-05 ± 1.6e-05
AUAAAAGCGCCAGUACUACAGAAAUGUAGUUGACGAGGAAGAAGGUUAUCGAAUUUUCGGCGGAUGCCUCCAAA | 0.000402 ± 8.4e-05
AUAAAAGCGCCAGGACUACAGAAAUGUAGUUGACGAGGACCAGGUUUGUCGAAUUUUCGGCGGAUGCCUCGAAA | < 1e-05
AUAAAAGCGCCAGCACUACAGAAAUGUAGUUGACGAGGAGGAGGUUUAUAGAUUUUUCGGCGGAUGCCUGCAAA | 4.72e-05 ± 2e-05
AUAAAAGCGCCAGUACUACAGAAAUGUAGUUGACGAGGGGUAGGUUUAUCGAAUUUUCGGCGGAUGCCUCCAAA | 0.000106 ± 2.6e-05
AUAAAAGCGCCAGCACUACAGAAAUGUAUUUGACGAGGCGGAGGUGAAUCGAAUUUUCGGCGGAUGCCUCCAAA | < 1e-05
AUAAAAGCGCCAGGACUACAGAAAUGUAGUUGACGGGGAGGAGGUUUAUCGAAUUGUCCGCUGAUGCCUCCAAA | < 1e-05

Variants of: B1
Test: self-cleavage kobs at 10000 uM GlcN6P; higher = faster cleavage; RNA array
Conditions: with glucosamine-6-phosphate
How it was run: as §1

Variant | self-cleavage kobs at 10000 uM GlcN6P [s⁻¹]
AUAAAAGCGCCAGUACUACAGAAAUGUAGUUGACGAGCAGGUGGUUUAUCGAAUUUUCGGCGGAUGCCUCCAAA | < 1e-05
AUAAAAGCGCCAGCACUACAGAAAUGUAGUUGACGAGGAGGACGUUUAUCAAAUUGUCGGCGGAUGCCUCCAAA | < 1e-05
AUAAAAGCGCCAGUACUACAGAAAUGUAUUUGACGAGGAGGAGGUUUUUCGAUUUUUCGGCUGAUGCCUCCAAA | < 1e-05
AUAAAAGCGCCAGCACUACAGAAAUGUAGUUGACGAGGAGGAGGUUUAUCGAAAUUUCCGCGGAUGCCUCUAAA | < 1e-05
